One block for each molecule: values may come before it.
Tests used:
[1] = biological target: angiotensin II receptor (AT1AR) transfected into human neuroblastoma SH-SY5Y cells (SH-SY5Y-AT1A cells); experiment: cell-based or functional assay
[2] = biological target: guinea pig angiotensin type 1 receptor on cardiac sympathetic nerve endings (guinea pig); experiment: cell-based or functional assay
[3] = biological target: T1, human angiotensinogen (Sigma), P01019
T1 chain: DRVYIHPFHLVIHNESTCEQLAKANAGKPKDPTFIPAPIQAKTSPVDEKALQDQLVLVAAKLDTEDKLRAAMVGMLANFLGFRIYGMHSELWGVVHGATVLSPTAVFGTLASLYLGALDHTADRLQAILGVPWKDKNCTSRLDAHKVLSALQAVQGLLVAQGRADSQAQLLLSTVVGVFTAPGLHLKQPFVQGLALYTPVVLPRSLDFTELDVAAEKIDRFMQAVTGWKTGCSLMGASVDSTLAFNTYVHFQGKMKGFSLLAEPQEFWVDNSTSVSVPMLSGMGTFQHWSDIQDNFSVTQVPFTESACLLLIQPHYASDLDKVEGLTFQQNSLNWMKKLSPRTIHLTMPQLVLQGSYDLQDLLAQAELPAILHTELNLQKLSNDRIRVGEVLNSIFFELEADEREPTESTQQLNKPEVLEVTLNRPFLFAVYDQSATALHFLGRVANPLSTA

release of [3H]MPP+ from SH-SY5Y-AT1A cells [1]: 20% | norepinephrine release from guinea-pig cardiac sympathetic nerve endings [2]: 27%
Molecule: angiotensin II (peptide)

B1: human renin of the human mast cell line HMC-1 (cells, lysate and releasate) (protein)
chain: LTLGNTTSSVILTNYMDTQYYGEIGIGTPPQTFKVVFDTGSSNVWVPSSKCSRLYTACVYHKLFDASDSSSYKHNGTELTLRYSTGTVSGFLSQDIITVGGITVTQMFGEVTEMPALPFMLAEFDGVVGMGFIEQAIGRVTPIFDNIISQGVLKEDVFSFYYNRDSENSQSLGGQIVLGGSDPQHYEGNFHYINLIKTGVWQIQMKGVSVGSSTLLCEDGCLALVDTGASYISGSTSSIEKLMEALGAKKRLFDYVVKCNEGPTLPDISFHLGGKEYTLTSADYVFQESYSSKKLCTLAIHAMDIPPPTGPTWALGATFIRKFYTEFDRRNNRIGFALAR
ANG I activity of HMC-1 releasate with 240 nM angiotensinogen, with or without BILA2157 [3]: about 70% of the ANG I activity measured in the presence of 240 nM angiotensinogen, is due to BILA2157-sensitive renin | ANG I formed (renin activity) by RIA [3]: The amount of ANG I formed increased with angiotensinogen concentration. | ANG I formed (renin activity) by RIA, with or without BILA2157 (100 nM) [3]: ˜70% of the total ANG I formed originates from renin
